In US20180346932A1:

Target: dCas9-GCN4 fusion protein of System 3 (dCas9 with 5 copies of GCN4 peptides, linker of 22 amino acids) (S. pyogenes) (UniProt Q99ZW2)
Test: cell-based or functional assay

Chain of GCN4 peptide antibody (scFv)-superfolder green fluorescent protein (sfGFP)-TET1CD fusion protein (Q8NFU7 1418-2136): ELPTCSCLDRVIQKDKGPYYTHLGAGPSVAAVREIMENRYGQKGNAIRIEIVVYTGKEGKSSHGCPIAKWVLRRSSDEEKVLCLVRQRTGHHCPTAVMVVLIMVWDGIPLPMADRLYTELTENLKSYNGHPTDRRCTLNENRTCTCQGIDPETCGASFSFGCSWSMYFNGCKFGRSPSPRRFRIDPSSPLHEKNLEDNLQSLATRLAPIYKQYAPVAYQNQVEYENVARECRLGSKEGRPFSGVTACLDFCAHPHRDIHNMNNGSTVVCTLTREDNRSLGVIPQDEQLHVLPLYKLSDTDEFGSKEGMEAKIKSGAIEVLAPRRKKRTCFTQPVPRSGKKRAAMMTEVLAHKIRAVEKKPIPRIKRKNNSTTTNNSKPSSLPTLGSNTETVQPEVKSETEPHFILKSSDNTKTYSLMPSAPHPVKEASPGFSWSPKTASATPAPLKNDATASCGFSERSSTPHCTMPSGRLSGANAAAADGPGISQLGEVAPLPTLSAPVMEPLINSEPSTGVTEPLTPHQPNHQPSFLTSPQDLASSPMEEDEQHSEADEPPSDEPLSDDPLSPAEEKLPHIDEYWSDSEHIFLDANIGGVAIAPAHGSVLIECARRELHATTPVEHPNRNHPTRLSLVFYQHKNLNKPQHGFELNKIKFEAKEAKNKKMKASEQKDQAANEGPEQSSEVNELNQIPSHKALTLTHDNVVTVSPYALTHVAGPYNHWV

Work on “GCN4 peptide antibody (scFv)-superfolder green fluorescent protein (sfGFP)-TET1CD fusion protein (from UniProt Q8NFU7 1418-2136)” yielded a demethylation of the Gfap STAT3 site in ESCs (COBRA, standardized demethylation percentage) of 43%.
